# T1: 4H850-bN
# T1 chain: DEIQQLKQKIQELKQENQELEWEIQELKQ
# T2: 4H4001-bH
# T2 chain: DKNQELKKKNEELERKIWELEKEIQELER
# T3: 4H1387-bH
# T3 chain: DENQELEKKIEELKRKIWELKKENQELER
# T4: 4H1406-bH
# T4 chain: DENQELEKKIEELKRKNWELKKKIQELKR
# T5: 4H4038-bH
# T5 chain: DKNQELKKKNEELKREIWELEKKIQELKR
# T6: 4H3601-bH
# T6 chain: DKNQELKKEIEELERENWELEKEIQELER
# T7: 4H3592-bH
# T7 chain: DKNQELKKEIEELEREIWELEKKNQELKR
# T8: 4H3907-bH
# T8 chain: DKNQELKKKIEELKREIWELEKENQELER
# T9: O11-AA
# T9 chain: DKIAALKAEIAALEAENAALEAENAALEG
# T10: P12-AA
# T10 chain: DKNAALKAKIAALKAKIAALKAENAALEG
# T11: O14-AA
# T11 chain: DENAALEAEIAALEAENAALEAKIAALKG
# T12: P10-AA
# T12 chain: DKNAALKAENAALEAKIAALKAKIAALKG
# T13: AP2-AA
# T13 chain: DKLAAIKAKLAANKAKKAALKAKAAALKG
# T14: AP1-AA
# T14 chain: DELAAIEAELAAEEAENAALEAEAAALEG
# T15: AP7-AA
# T15 chain: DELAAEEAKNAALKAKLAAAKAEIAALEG
# T16: P3-AA
# T16 chain: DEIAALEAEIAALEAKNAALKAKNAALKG
# T17: P8-AA
# T17 chain: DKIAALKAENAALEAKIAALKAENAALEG
# T18: P7-AA
# T18 chain: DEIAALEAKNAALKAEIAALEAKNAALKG
# T19: P9-AA
# T19 chain: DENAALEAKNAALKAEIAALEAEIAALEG
# T20: zCON9_D
# T20 chain: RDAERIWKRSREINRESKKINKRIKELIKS
# T21: AP3-AA
# T21 chain: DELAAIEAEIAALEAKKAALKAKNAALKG
# T22: P2-AA
# T22 chain: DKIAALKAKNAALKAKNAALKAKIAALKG
# T23: zCON9_A
# T23 chain: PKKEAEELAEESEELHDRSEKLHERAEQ
# T24: P11-AA
# T24 chain: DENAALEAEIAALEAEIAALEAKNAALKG
# T25: P1-AA
# T25 chain: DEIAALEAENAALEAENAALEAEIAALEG
# T26: O13-AA
# T26 chain: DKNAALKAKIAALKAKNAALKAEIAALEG
# T27: P4-AA
# T27 chain: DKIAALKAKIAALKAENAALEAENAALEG
# T28: 4H_APH
# T28 chain: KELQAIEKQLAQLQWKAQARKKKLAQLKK
# T29: AP8-AA
# T29 chain: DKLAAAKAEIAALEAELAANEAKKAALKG
# T30: 4H_APH3
# T30 chain: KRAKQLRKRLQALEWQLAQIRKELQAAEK
# T31: 4H_BCR
# T31 chain: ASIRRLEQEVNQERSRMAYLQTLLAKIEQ
# T32: zCON9_B
# T32 chain: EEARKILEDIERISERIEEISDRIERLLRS
# T33: AP5-AA
# T33 chain: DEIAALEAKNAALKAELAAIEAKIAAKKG
# T34: AP4-AA
# T34 chain: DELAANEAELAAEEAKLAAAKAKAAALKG
# T35: AP6-AA
# T35 chain: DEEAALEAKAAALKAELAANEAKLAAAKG
# How the values were obtained:
# [1] = molecular target: T1, 4H850-bN; assay: two-hybrid library CCNG1;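 note: natural log of median RNA to DNA barcode read ratio; higher means stronger binding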
# [2] = molecular target: T2, 4H4001-bH; assay: two-hybrid library CCNG1;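 note: natural log of median RNA to DNA barcode read ratio; higher means stronger binding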
# [3] = molecular target: T3, 4H1387-bH; assay: two-hybrid library CCNG1;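 note: natural log of median RNA to DNA barcode read ratio; higher means stronger binding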
# [4] = molecular target: T4, 4H1406-bH; assay: two-hybrid library CCNG1;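 note: natural log of median RNA to DNA barcode read ratio; higher means stronger binding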
# [5] = molecular target: T5, 4H4038-bH; assay: two-hybrid library CCNG1;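 note: natural log of median RNA to DNA barcode read ratio; higher means stronger binding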
# [6] = molecular target: T6, 4H3601-bH; assay: two-hybrid library CCNG1;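 note: natural log of median RNA to DNA barcode read ratio; higher means stronger binding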
# [7] = molecular target: T7, 4H3592-bH; assay: two-hybrid library CCNG1
# [8] = molecular target: T8, 4H3907-bH; assay: two-hybrid library CCNG1
# [9] = molecular target: T9, O11-AA; assay: two-hybrid library CCmax; details: mean of both orientations
# [10] = molecular target: T10, P12-AA; assay: two-hybrid library CCmax; details: mean of both orientations
# [11] = molecular target: T11, O14-AA; assay: two-hybrid library CCmax; details: mean of both orientations
# [12] = molecular target: GCN2_T; assay: two-hybrid library CCmax
# [13] = molecular target: T12, P10-AA; assay: two-hybrid library CCmax; details: mean of both orientations
# [14] = molecular target: T13, AP2-AA; assay: two-hybrid library CCmax
# [15] = molecular target: T14, AP1-AA; assay: two-hybrid library CCmax
# [16] = molecular target: T15, AP7-AA; assay: two-hybrid library CCmax; details: mean of both orientations
# [17] = molecular target: T16, P3-AA; assay: two-hybrid library CCmax
# [18] = molecular target: T17, P8-AA; assay: two-hybrid library CCmax; details: mean of both orientations
# [19] = molecular target: T18, P7-AA; assay: two-hybrid library CCmax
# [20] = molecular target: T19, P9-AA; assay: two-hybrid library CCmax
# [21] = molecular target: T20, zCON9_D; assay: two-hybrid library CCmax
# [22] = molecular target: T21, AP3-AA; assay: two-hybrid library CCmax
# [23] = molecular target: T22, P2-AA; assay: two-hybrid library CCmax
# [24] = molecular target: T23, zCON9_A; assay: two-hybrid library CCmax
# [25] = molecular target: T24, P11-AA; assay: two-hybrid library CCmax; details: mean of both orientations
# [26] = molecular target: T25, P1-AA; assay: two-hybrid library CCmax; details: mean of both orientations
# [27] = molecular target: T26, O13-AA; assay: two-hybrid library CCmax; details: mean of both orientations
# [28] = molecular target: T27, P4-AA; assay: two-hybrid library CCmax; details: mean of both orientations
# [29] = molecular target: T28, 4H_APH; assay: two-hybrid library CCmax
# [30] = molecular target: T29, AP8-AA; assay: two-hybrid library CCmax; details: mean of both orientations
# [31] = molecular target: T30, 4H_APH3; assay: two-hybrid library CCmax
# [32] = molecular target: T31, 4H_BCR; assay: two-hybrid library CCmax; details: mean of both orientations
# [33] = molecular target: T32, zCON9_B; assay: two-hybrid library CCmax; details: mean of both orientations
# [34] = molecular target: T33, AP5-AA; assay: two-hybrid library CCmax; details: mean of both orientations
# [35] = molecular target: T34, AP4-AA; assay: two-hybrid library CCmax; details: mean of both orientations
# [36] = molecular target: 4H_GCN4; assay: two-hybrid library CCmax
# [37] = molecular target: T35, AP6-AA; assay: two-hybrid library CCmax; details: mean of both orientations
# Chain of 4H_GCN4 (chain, as listed by the source): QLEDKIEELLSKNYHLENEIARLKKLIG
binder,measurement,setting,value
DENQELEKKIEELKRKIWELKKENQELER [4H1387-bH],interaction score,[1],0.44
same,interaction score,[2],0.333
same,interaction score,[3],0.423
same,interaction score,[4],-0.693
same,interaction score,[5],1.09
same,interaction score,[6],-0.847
same,interaction score,[7],1.37
same,interaction score,[8],1.59
KELQAIEKQLAQLQWKAQARKKKLAQLKK [4H_APH],interaction score,[9],-1.39
same,interaction score,[10],-1.3
same,interaction score,[11],-1.65
same,interaction score,[12],-2.07
same,interaction score,[13],-1.47
same,interaction score,[14],-1.63
same,interaction score,[15],-1.47
same,interaction score,[16],-2.03
same,interaction score,[17],-0.728
same,interaction score,[18],-1.89
same,interaction score,[19],-1.87
same,interaction score,[20],-1.86
same,interaction score,[21],-1.96
same,interaction score,[22],-1.35
same,interaction score,[23],-1.82
same,interaction score,[24],-1.26
same,interaction score,[25],-1.03
same,interaction score,[26],-2.11
same,interaction score,[27],-1.81
same,interaction score,[28],-1.9
same,interaction score,[29],-2.1
same,interaction score,[30],-1.48
same,interaction score,[31],-1.54
same,interaction score,[32],-1.64
same,interaction score,[33],-2.09
same,interaction score,[34],-2.21
same,interaction score,[35],-1.31
same,interaction score,[36],-2.22
same,interaction score,[37],-2.09
